The experiment addresses T1, Vph1NT-FLAG (first 406 amino acids of Vph1p with C-terminal FLAG) (S. cerevisiae, UniProt P32563 1-406).
T1 sequence (looked up): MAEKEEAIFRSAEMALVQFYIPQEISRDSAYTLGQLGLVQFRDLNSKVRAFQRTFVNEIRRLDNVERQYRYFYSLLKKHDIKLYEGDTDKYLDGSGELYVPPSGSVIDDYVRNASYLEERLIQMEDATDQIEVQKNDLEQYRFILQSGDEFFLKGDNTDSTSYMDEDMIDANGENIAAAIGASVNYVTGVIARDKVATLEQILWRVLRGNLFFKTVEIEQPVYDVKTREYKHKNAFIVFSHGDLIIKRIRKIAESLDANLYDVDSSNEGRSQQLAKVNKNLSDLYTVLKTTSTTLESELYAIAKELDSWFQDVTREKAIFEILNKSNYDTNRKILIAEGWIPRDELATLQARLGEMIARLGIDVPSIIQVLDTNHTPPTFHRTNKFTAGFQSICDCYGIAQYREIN
Kind of experiment: pull-down.

B1: GST-Rav1(840–1125) (domain or fragment, S. cerevisiae, UniProt P47104 840-1125, looked up)
chain: LTEQLTKTTLPYLTRHQQITLITVIEAVDEVTKNENIVDYNGVRFLLGVKLFLSHKNIQKSILMRDVSWALHSDNKEILLSSIDRHITSWNRAREYRIAYWIKEQDLVKKFEDIAKYEFSKDDKRDPSRCAIFYLALKKKQILLSLWKMAIGHPEQQKMVRFISNDFTVPRWRTAALKNAFVLLSKHRYMDAAVFFLLTDSLKDCVNVLCKQVHDMDLAIGVCRVYEGDNGPVLGELLTAQMLPETIKENDRWKASFIYWKLRKQEVAIKALLTAPIDLENNSSIV
As to B1, the binding result is recorded as “binds”.

For the origin of these results see paper PMC3907276 (Molecular Biology of the Cell, 2014).
